In patent US12692514B2, “Living cells engineered with polyphenol-functionalized biologically active nanocomplexes” (PRESIDENT AND FELLOWS OF HARVARD COLLEGE, priority 2020, dated 2026):

Assay: In vivo biodistribution after intravenous administration (IVIS)
Design: species or system C57BL/6 mice
Conditions: 5 min (0.08 hour) after administration
Description: (FIG. 3A) IVIS images of excised mouse lungs 5 min (0.08 hours) after the administration of OVA protein only and OVA/Erythrocyteplex. […] OVA was used for the fluorescence signal. (FIG. 3B) Biodistribution of OVA only and OVA/Erythrocyteplex 5 min after intravenous (IV) administration. (FIG. 3C) Biodistribution of OVA only and OVA/Erythrocyteplex 6 hours after IV administration. (FIG. 3D) Biodistribution of OVA only and OVA/Erythrocyteplex 24 hours after IV administration. (FIG. 3E) Lung to liver ratio of OVA delivered by the control counterpart and OVA/Erythrocyteplex throughout the entire measurement window. (FIG. 3F) Remaining OVA delivered by Erythrocyteplex through the time after 24 hours post-injection. […] Variation is represented by SE (error bars) from three independent replicates for all data points. (FIG. 3G) Confocal florescence microscopy images of lung vascular capillary sections 5 min. […]
Female 50-56 days old C57BL/6 mice (n=3-6 per group) were administered intravenously using a with OVA-Erythrocyteplex coated with 30 ug/mL OVA. […] Each organ was placed in a 6 well tissue culture plate (Falcon); blood (50 μL) was placed in a heparinized microcapillary tube (Drummond Scientific) and far red fluorescence signal for each organ was imaged using Perkin Elmer IVIS small animal imaging system. Far red signals were quantified using LivingImage software.

B1: free OVA: free ovalbumin protein, control counterpart (protein, UniProt P01012 2-386, looked up)
Ovalbumin: GSIGAASMEFCFDVFKELKVHHANENIFYCPIAIMSALAMVYLGAKDSTRTQINKVVRFDKLPGFGDSIEAQCGTSVNVHSSLRDILNQITKPNDVYSFSLASRLYAEERYPILPEYLQCVKELYRGGLEPINFQTAADQARELINSWVESQTNGIIRNVLQPSSVDSQTAMVLVNAIVFKGLWEKAFKDEDTQAMPFRVTEQESKPVQMMYQIGLFRVASMASEKMKILELPFASGTMSMLVLLPDEVSGLEQLESIINFEKLTEWTSSNVMEERKIKVYLPRMKMEEKYNLTSVLMAMGITDVFSSSANLSGISSAESLKISQAVHAAHAEINEAGREVVGSAEAGVDAASVSEEFRADHPFLFCIKHIATNAVLFFGRCVSP
  signal in the liver: strong signal intensities in the liver
